{"source": "paper PMC4335073", "molecular_target": "Ross River virus (RRV), WT T48 strain, UV-inactivated virus coated on plates (Ross River virus, strain T48)", "data": [{"substance": "recombinant human PTX3 N-terminal fragment (domain or fragment)", "values": [{"measurement": "RRV entry into HEK 293T cells at 0 and 6 hpi (flow cytometry with anti-alphavirus antibody), RRV pre-incubated with the PTX3 fragment, compared with full-length rhPTX3 (% less efficient than full-length rhPTX3)", "value": 30}]}]}
